In patent publication US20100272750A1 one finds IC50 data, which are given here for 40 molecules.

Like-named read-outs stand apart in the source and are kept apart here.

As usually defined, the IC50 is the midpoint of a concentration-inhibition curve. High values mean weaker potency in that assay, low ones greater potency in that assay.

Targets include HLA A2902 (human); HLA A2402 (human); HLA A2302 (human); HLA A3002 (human); HLA A0202 (human); HLA A0201 (human); HLA A0203 (human); HLA A0206 (human); HLA A1101 (human); HLA A3101 (human); HLA A6801 (human); HLA A0301 (human); HLA A2601 (human); HLA A0101 (human).
Test in all cases: 125I-probe competition, purified HLA
Setting [1] is: remark: other sources report otherwise.

B1: HPV31.E1.557 (peptide)
peptide: PYLHSRLVVF
modifications: not checked
Turning to B1, the IC50 worked out at 4360 nM in the assay with HLA A2902 (human), 38.7 nM with HLA A2402 (human), 2.8 nM in the assay with HLA A2302 (human) and 2230 nM with HLA A3002 (human).

B2: HPV18.E6.24 (peptide)
peptide: SLQDIEITCV
modifications: not checked
For B2, the IC50 with HLA A0202 (human) amounted to 25 nM; in the assay with HLA A0201 (human), 153 nM; with HLA A0203 (human), 38 nM; in the assay with HLA A0206 (human), 205 nM.

B3: HPV16.E1.483 (peptide)
peptide: KSLFGMSLMK
modifications: not checked
For the molecule B3, the IC50 in the assay with HLA A1101 (human) worked out at 2 nM; in the assay with HLA A3101 (human), 230 nM; in the assay with HLA A6801 (human), 887 nM; with HLA A0301 (human), 3.9 nM.

B4: HPV31.E5.64 (peptide)
peptide: VVFIYIPLF
modifications: not checked
Consider B4, for which the IC50 came to 302 nM in the assay with HLA A2902 (human), 276 nM with HLA A2402 (human), 108 nM with HLA A2302 (human) and 268 nM in the assay with HLA A3002 (human).

B5: HPV16.E6.49 (peptide)
peptide: VYDFAFRDLCI
modifications: not checked
Regarding B5, the IC50 was determined as 22 nM with HLA A2402 (human) and 8.9 nM with HLA A2302 (human).

B6: HPV45.E7.20 (peptide)
peptide: ELDPVDLLCY
modifications: not checked
Consider B6, for which the IC50 in the assay with HLA A2902 (human) came out at 4290 nM; in the assay with HLA A2601 (human), 2110 nM; with HLA A0101 (human), 26 nM.

B7: HPV18.E2.154 (peptide)
peptide: ATCVSHRGLY
modifications: not checked
For B7, the IC50 was determined as 4210 nM with HLA A2902 (human), 646 nM with HLA A2601 (human), 28 nM with HLA A3002 (human) and 421 nM in the assay with HLA A0101 (human).

B8: HPV18.E2.168 (peptide)
peptide: GYNTFYIEF
modifications: not checked
B8: the results for the IC50 with HLA A2902 (human), with HLA A2302 (human) and in the assay with HLA A3002 (human) were 835 nM, 13 nM and 1260 nM, respectively.

B9: HPV31.E2.291 (peptide)
peptide: ATTPIIHLK
modifications: not checked
With B9, the IC50 in the assay with HLA A1101 (human) worked out at 1.2 nM; with HLA A3101 (human), 34 nM; with HLA A6801 (human), 2.5 nM; with HLA A0301 (human), 10 nM.

B10: HPV18.E6.89 (peptide)
peptide: TLEKLTNTGLY
modifications: not checked
Consider B10, for which the figures for the IC50 with HLA A2601 (human) (setting [1]) and with HLA A3002 (human) (setting [1]) were 265 nM and 476 nM, respectively.

B11: HPV18.E1.210 (peptide)
peptide: KQGAMLAVFK
modifications: not checked
As to B11, the IC50 with HLA A1101 (human) was found to be 11 nM; with HLA A3101 (human) it was 519 nM; in the assay with HLA A6801 (human), 235 nM; with HLA A0301 (human), 35 nM.

B12: HPV45.E1.411 (peptide)
peptide: RQMNMSQWIK
modifications: not checked
With B12, the IC50 in the assay with HLA A1101 (human) was found to be 11 nM; with HLA A3101 (human), 45 nM; with HLA A6801 (human), 2560 nM; in the assay with HLA A0301 (human), 15 nM.

B13: HPV31.E6.90 (peptide)
peptide: KLTNKGICDL
modifications: not checked
B13: the IC50 was 440 nM in the assay with HLA A0202 (human), 205 nM with HLA A0201 (human), 585 nM in the assay with HLA A0203 (human) and 484 nM with HLA A0206 (human).

B14: HPV18.E5.52 (peptide)
peptide: VYVFCFLLPM
modifications: not checked
For the molecule B14, the results for the IC50 in the assay with HLA A2902 (human), with HLA A2402 (human) and in the assay with HLA A2302 (human) were 5280 nM, 178 nM and 57 nM, respectively.

B15: HPV31.E1.272 (peptide)
peptide: KLLEKLLCI
modifications: not checked
As to B15, the IC50 with HLA A0202 (human) came out at 21 nM; with HLA A0201 (human) it was 19 nM; in the assay with HLA A0203 (human), 2.4 nM; with HLA A0206 (human), 51 nM.

B16: HPV45.E2.144 (peptide)
peptide: YYITETGIW
modifications: not checked
With B16, the IC50 with HLA A2402 (human) is 8.5 nM; with HLA A2302 (human), 2 nM.

B17: HPV18.E1.266 (peptide)
peptide: ILYAHIQCL
modifications: not checked
Turning to B17, the 50% inhibitory concentration (IC50) with HLA A0202 (human) (setting [1]) was 8.5 nM; in the assay with HLA A0201 (human) (setting [1]), 33 nM; with HLA A0203 (human) (setting [1]), 10.2 nM; with HLA A0206 (human) (setting [1]), 236 nM.

B18: HPV18.E2.61 (peptide)
peptide: QVVPAYNISK
modifications: not checked
With B18, the IC50 in the assay with HLA A1101 (human) came out at 14 nM; with HLA A3101 (human), 6660 nM; with HLA A6801 (human), 8 nM; with HLA A0301 (human), 308 nM.

B19: HPV16.E2.329 (peptide)
peptide: KSAIVTLTY
modifications: not checked
With B19, the values for the IC50 in the assay with HLA A3002 (human) and with HLA A0101 (human) were 6 nM and 9 nM, respectively.

B20: HPV31.E1.349 (peptide)
peptide: VMDDSEIAY
modifications: not checked
In the case of B20, the figures for the IC50 with HLA A2902 (human), in the assay with HLA A3002 (human) and with HLA A0101 (human) were 95 nM, 2550 nM and 18 nM, respectively.

B21: HPV16.E1.292 (peptide)
peptide: KLLSKLLCV
modifications: not checked
B21: the IC50 amounted to 67.7 nM in the assay with HLA A0202 (human), 31 nM in the assay with HLA A0201 (human), 23 nM with HLA A0203 (human) and 125 nM with HLA A0206 (human).

B22: HPV16.E2.23 (peptide)
peptide: STDLRDHIDY
modifications: not checked
For the molecule B22, the IC50 turned out to be 758 nM with HLA A2601 (human), 17 nM with HLA A3002 (human) and 113 nM with HLA A0101 (human).

B23: HPV18/45.E1.491 (peptide)
peptide: SYFGMSFIHF
modifications: not checked
As to B23, the IC50 worked out at 62 nM with HLA A2902 (human), 17.5 nM in the assay with HLA A2402 (human), 4.3 nM with HLA A2302 (human) and 1540 nM with HLA A3002 (human).

B24: HPV45.E1.578 (peptide)
peptide: VFTFPHAFPF
modifications: not checked
As for B24, the IC50 in the assay with HLA A2902 (human) came out at 57 nM; with HLA A2402 (human), 90.4 nM; in the assay with HLA A2302 (human) it was 15.9 nM.

B25: HPV16.E2.151 (peptide)
peptide: QVDYYGLYY
modifications: not checked
B25: the IC50 was determined as 25 nM in the assay with HLA A2902 (human), 251 nM with HLA A2601 (human), 160 nM with HLA A3002 (human) and 2.7 nM with HLA A0101 (human).

B26: HPV18.E2.211 (peptide)
peptide: TVSATQLVK
modifications: not checked
On to B26, for which the IC50 with HLA A1101 (human) came out at 4 nM; with HLA A3101 (human), 6140 nM; with HLA A6801 (human), 31 nM; in the assay with HLA A0301 (human), 7 nM.

B27: HPV45.E6.44 (peptide)
peptide: VYQFAFKDL
modifications: not checked
Turning to B27, the IC50 in the assay with HLA A2402 (human) came to 4 nM; with HLA A2302 (human) it was 1.1 nM; with HLA A3002 (human) it was 165 nM.

B28: HPV18.E5.14 (peptide)
peptide: MYVCCHVPL
modifications: not checked
In the case of B28, the IC50 was 15 nM with HLA A2402 (human), 24 nM with HLA A2302 (human) and 4720 nM in the assay with HLA A3002 (human).

B29: HPV16.E4.9 (peptide)
peptide: AATKYPLLK
modifications: not checked
In the case of B29, the IC50 in the assay with HLA A1101 (human) was determined as 20 nM; with HLA A0301 (human), 59 nM.

B30: HPV31.E1.565 (peptide)
peptide: VFTFPNPFPF
modifications: not checked
B30: the IC50 in the assay with HLA A2902 (human) turned out to be 603 nM; in the assay with HLA A2402 (human), 17 nM; with HLA A2302 (human), 12 nM.

B31: HPV31.E6.83 (peptide)
peptide: VYGTTLEKL
modifications: not checked
B31: the IC50 with HLA A2402 (human) stood at 26 nM; in the assay with HLA A2302 (human), 8.2 nM; with HLA A3002 (human), 1240 nM.

B32: HPV45.E6.95 (peptide)
peptide: NTELYNLLI
modifications: not checked
As for B32, the IC50 in the assay with HLA A2601 (human) came out at 17300 nM; with HLA A0101 (human) it was 32 nM.

B33: HPV31.E6.69 (peptide)
peptide: FYSKVSEFRW
modifications: not checked
B33: the IC50 was found to be 1780 nM with HLA A2902 (human), 4.5 nM in the assay with HLA A2402 (human), 8.8 nM with HLA A2302 (human) and 1360 nM in the assay with HLA A3002 (human).

B34: HPV16.E1.214 (peptide)
peptide: LYGVSFSEL
modifications: not checked
Turning to B34, the IC50 worked out at 3.1 nM with HLA A2402 (human) and 7.2 nM with HLA A2302 (human).

B35: HPV45.E6.84 (peptide)
peptide: SVYGETLEK
modifications: not checked
With B35, the half-inhibitory concentration (IC50) with HLA A1101 (human) amounted to 9.5 nM; with HLA A3101 (human), 6510 nM; with HLA A6801 (human), 7.2 nM; with HLA A0301 (human), 21 nM.

B36: HPV18.E7.6 (peptide)
peptide: ATLQDIVLH
modifications: not checked
B36: the IC50 in the assay with HLA A1101 (human) worked out at 11 nM; with HLA A3101 (human) it was 543 nM; with HLA A0301 (human), 211 nM.

B37: HPV18.E2.230 (peptide)
peptide: STVSVGTAK
modifications: not checked
For the molecule B37, the IC50 worked out at 6 nM with HLA A1101 (human), 1760 nM with HLA A3101 (human), 10 nM with HLA A6801 (human) and 34 nM in the assay with HLA A0301 (human).

B38: HPV18.E2.142 (peptide)
peptide: YYMTDAGTW
modifications: not checked
Consider B38, for which the IC50 in the assay with HLA A2902 (human) is 3410 nM; with HLA A2402 (human) it was 3.2 nM; with HLA A2302 (human), 14 nM; in the assay with HLA A3002 (human), 2150 nM.

B39: HPV45.E2.17 (peptide)
peptide: LQDKILDHY
modifications: not checked
As for B39, the IC50 with HLA A2601 (human) is 5000 nM; with HLA A3002 (human), 836 nM; with HLA A0101 (human), 32 nM.

B40: HPV31.E6.46 (peptide)
peptide: AFTDLTIVY
modifications: not checked
Regarding B40, the IC50 is 36 nM with HLA A2902 (human), 71 nM with HLA A3002 (human) and 31 nM with HLA A0101 (human).
